Experimental data from paper PMC4660055.

Legend:
[1] = biological target: PmrA (double-substitution W181G/I220D variant), BeF3^−-activated (Klebsiella pneumoniae); experiment: crystal structure; BeF3^−-activated PmrA dimer mixed 1:1 with 25-bp or 26-bp pbgP promoter DNA in 20 mM Tris-HCl pH 8.0, 100 mM NaCl, 2.65 mM BeF3^−; three copies of the complex (complex-1, -2, -3) in two crystal forms
[2] = biological target: T1, PmrA (double-substitution variant) (Klebsiella pneumoniae, UniProt W9BNR5 1-223, W181G;I220D); experiment: X-ray crystallography (3.8 A); BeF3-, Mg2+; FP: 10 mM sodium phosphate, 15 mM NaCl, pH 7.0, 298 K, 6 nM FAM-DNA; proteins activated with 5.3 mM BeCl2, 35 mM NaF, 7 mM MgCl2. NMR: 20 mM Tris-HCl, 100 mM Na
T1 sequence: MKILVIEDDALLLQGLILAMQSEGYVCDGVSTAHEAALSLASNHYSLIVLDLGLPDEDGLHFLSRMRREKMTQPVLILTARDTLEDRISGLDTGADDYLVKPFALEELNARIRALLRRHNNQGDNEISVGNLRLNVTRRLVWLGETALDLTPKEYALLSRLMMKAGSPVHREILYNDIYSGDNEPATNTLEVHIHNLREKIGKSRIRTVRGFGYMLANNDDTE

PmrA R210A = biological target: T2, PmrA R210A (Klebsiella pneumoniae, UniProt W9BNR5 1-223, R210A); experiment: fluorescence polarization; BeF3-, Mg2+ (activation); FP: 10 mM sodium phosphate, 15 mM NaCl, pH 7.0, 298 K, 6 nM FAM-DNA; proteins activated with 5.3 mM BeCl2, 35 mM NaF, 7 mM MgCl2. NMR: 20 mM Tris-HCl, 100 mM Na
T2 sequence: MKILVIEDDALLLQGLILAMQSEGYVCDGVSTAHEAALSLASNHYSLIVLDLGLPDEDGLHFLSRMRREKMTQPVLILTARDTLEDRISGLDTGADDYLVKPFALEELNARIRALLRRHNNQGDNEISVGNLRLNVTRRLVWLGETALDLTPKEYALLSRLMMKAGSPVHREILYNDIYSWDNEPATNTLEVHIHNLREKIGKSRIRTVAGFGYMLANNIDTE

PmrA N188A = biological target: T3, PmrA N188A (Klebsiella pneumoniae, UniProt W9BNR5 1-223, N188A); experiment: as above
T3 sequence: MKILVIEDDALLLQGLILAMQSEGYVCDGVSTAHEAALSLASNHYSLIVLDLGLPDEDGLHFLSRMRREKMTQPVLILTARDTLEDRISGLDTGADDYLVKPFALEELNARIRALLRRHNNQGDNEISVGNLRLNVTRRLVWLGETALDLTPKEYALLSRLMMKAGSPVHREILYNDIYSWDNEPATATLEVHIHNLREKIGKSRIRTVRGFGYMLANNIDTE

WT-PmrA = biological target: T4, WT-PmrA (Klebsiella pneumoniae, UniProt W9BNR5 1-223); experiment: as above
T4 sequence: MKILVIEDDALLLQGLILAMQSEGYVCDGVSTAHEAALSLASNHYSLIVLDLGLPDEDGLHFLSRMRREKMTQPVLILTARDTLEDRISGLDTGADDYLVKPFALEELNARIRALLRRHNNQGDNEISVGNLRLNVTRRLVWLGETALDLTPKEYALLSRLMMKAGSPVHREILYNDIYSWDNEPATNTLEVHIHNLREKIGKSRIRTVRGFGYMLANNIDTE

[3] = biological target: T1, PmrA (double-substitution variant); experiment: as above
PmrA N196A = biological target: T5, PmrA N196A (Klebsiella pneumoniae, UniProt W9BNR5 1-223, N196A); experiment: as above
T5 sequence: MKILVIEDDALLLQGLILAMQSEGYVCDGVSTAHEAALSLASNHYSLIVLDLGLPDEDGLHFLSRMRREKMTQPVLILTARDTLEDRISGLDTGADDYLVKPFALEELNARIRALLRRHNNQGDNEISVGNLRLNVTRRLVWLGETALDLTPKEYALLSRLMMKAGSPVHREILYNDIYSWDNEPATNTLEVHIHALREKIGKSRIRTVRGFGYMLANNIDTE

PmrA N176A = biological target: T6, PmrA N176A (Klebsiella pneumoniae, UniProt W9BNR5 1-223, N176A); experiment: as above
T6 sequence: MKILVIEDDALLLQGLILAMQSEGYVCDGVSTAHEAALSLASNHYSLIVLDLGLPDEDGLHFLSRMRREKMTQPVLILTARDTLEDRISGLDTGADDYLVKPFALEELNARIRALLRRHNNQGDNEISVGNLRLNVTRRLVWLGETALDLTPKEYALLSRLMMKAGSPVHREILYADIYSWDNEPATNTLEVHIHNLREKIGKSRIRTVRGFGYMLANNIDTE

PmrA (double-substitution W181G/I220D variant), BeF3^−-activated (natural protein)
stoichiometry N [1]: 2

B1: 26-bp pmra box DNA (crystal) (dsDNA)
DNA 1: ATTTCTTAATATTATCCTAAGCAAGG
DNA 2: CTTGCTTAGGATAATATTAAGAAATC
binding result [2]: binds

B2: 25-bp FAM-labelled DNA (FP) (dsDNA)
DNA 1: ATTTCTTAATATTATCCTAAGCAAG
DNA 2: TTGCTTAGGATAATATTAAGAAATC
Kd (PmrA R210A): 3037 ± 11.7 nM | Kd (PmrA N188A): 762 ± 12.3 nM | Kd (WT-PmrA): 194 ± 7.7 nM | Kd [3]: 201 ± 8.2 nM | Kd (PmrA N196A): 399 ± 10.9 nM | Kd (PmrA N176A): 365 ± 11.6 nM
